Here are results for 1 protein from patent publication US7943731 (MIT, dated 2011).

The data set deals with the molecule itself. The experiment in a line: sedimentation equilibrium, self-association in solution without DNA. On the procedure: Sedimentation Equilibrium. Peptide samples at three concentrations, ranging from ≈10 µM to ≈100 µM, were centrifuged to equilibrium in a Beckman Optima XL-A at 20,000 and 30,000 rpm at 4° C. in a buffer containing 15 mM Tris, pH 7.8, 150 mM KCl, 5 mM MgCl_2, 20 µM ZnSO_4, and 0.2 mM DTT. Solvent density and partial specific volumes of peptides were calculate at described (13). The sedimentation data were analyzed by methods described in refs. 14 and 15, using the program NONLIN (16).

B1: Zif12 peptide (amino acids 2-59 of Zif268, Gly-Ser dipeptide at the N terminus) (other)
chain: not shown
notes: range 2-59; No N-terminal peptide extension; also called isolated Zif12 domain; Zif1-Zif2 construct
For the protein B1, the binding result was “no binding (tested: ≈100 µM)”.
